Experimental data: publication PMC3516508 (PLoS ONE, 2012)

Columns and labels:
[1] = biological target: the molecule itself; assay: SEC; βA3-crystallin alone, run beside the mixtures of Figure 5A; concentration not given
[2] = biological target: the molecule itself; assay: SEC; Superdex 200HR 10/300GL, protein concentration raised above 0.2 up to 4 mg/ml, buffer A, equilibrated 2 h at 4°C, run at 16°C; tetramer to dimers
[3] = biological target: the molecule itself; assay: SEC; Superdex 200HR 10/300GL, protein at 0.2 mg/ml, buffer A (20 mM sodium phosphate, 100 mM NaCl, 1 mM DTT, 1 mM EDTA, pH 7.2), equilibrated 2 h at 4°C, run at 16°C; dimer

B1: βA3-crystallin (natural protein, UniProt P05813 1-215, looked up)
chain: METQAEQQELETLPTTKMAQTNPTPGSLGPWKITIYDQENFQGKRMEFTSSCPNVSERSFDNVRSLKVESGAWIGYEHTSFCGQQFILERGEYPRWDAWSGSNAYHIERLMSFRPICSANHKESKMTIFEKENFIGRQWEISDDYPSLQAMGWFNNEVGSMKIQSGAWVCYQYPGYRGYQYILECDHHGGDYKHWREWGSHAQTSQIQSIRRIQQ
notes: βA3-crystallin; also called BA3/BA1
stoichiometry N [1]: 2

B2: wild type (WT) human βB2-crystallin (natural protein, UniProt P43320 1-205, looked up)
chain: MASDHQTQAGKPQSLNPKIIIFEQENFQGHSHELNGPCPNLKETGVEKAGSVLVQAGPWVGYEQANCKGEQFVFEKGEYPRWDSWTSSRRTDSLSSLRPIKVDSQEHKIILYENPNFTGKKMEIIDDDVPSFHAHGYQEKVSSVRVQSGTWVGYQYPGYRGLQYLLEKGDYKDSSDFGAPHPQVQSVRRIRDMQWHQRGAFHPSN
notes: Cloned BamHI/HindIII into pET28a; Oligomeric state depends on concentration (dimer at 0.2 mg/ml, dimer and tetramer at higher concentrations); also called WT βB2-crystallin; BB2; source: E. coli Rosetta (DE3), pET28a, purified (Ni-NTA, Superdex 200)
stoichiometry N [2]: 4 | stoichiometry N [3]: 2

B3: A2V mutated βB2-crystallin (natural protein, human, UniProt P43320 1-205, looked up)
chain: MVSDHQTQAGKPQSLNPKIIIFEQENFQGHSHELNGPCPNLKETGVEKAGSVLVQAGPWVGYEQANCKGEQFVFEKGEYPRWDSWTSSRRTDSLSSLRPIKVDSQEHKIILYENPNFTGKKMEIIDDDVPSFHAHGYQEKVSSVRVQSGTWVGYQYPGYRGLQYLLEKGDYKDSSDFGAPHPQVQSVRRIRDMQWHQRGAFHPSN
notes: human βB2-crystallin with the congenital cataract-linked A2V mutation, made by site-directed mutagenesis with primers from the start codon to the stop codon; Same vector and tag as m1; also called A2V mutant; source: E. coli Rosetta (DE3), pET28a, purified (Ni-NTA, Superdex 200)
stoichiometry N [2]: 4 | stoichiometry N [3]: 2
